Measurements reported in patent US20210324359A1, “USE OF GRAM-NEGATIVE LYSIN-ANTIMICROBIAL PEPTIDE (AMP) POLYPEPTIDE CONSTRUCTS IN TREATING ENDOCARDITIS” (priority 2020, published 2021).
“Also recorded” adds a separate entry of the source. Read-outs that look alike come from different tables or passages of the source.

Tests used:
Type in all cases: cell-based, Pseudomonas aeruginosa
[1] = test system: carbapenem-resistant P. aeruginosa strains; experiment: Resensitization of carbapenem-resistant strains, combinations with imipenem or meropenem (Tables 18-22); details: for FICI: isolate WC-452
P. aeruginosa isolates = experiment: MIC against a range of isolates in CAA + […] human serum (Table 11)
P. aeruginosa PA20 = experiment: MIC of GN370 and meropenem against the infecting strain
[2] = test system: P. aeruginosa PA20 recovered from rabbit lung homogenates; details: for number of isolates with GN370 MIC 1 μg/mL / number of isolates with GN370 MIC 2 μg/mL: n=48
P. aeruginosa strains = experiment: Checkerboard synergy with meropenem in 25% CAA and […] human serum (Table 16); details: for FICI value (Run #1), with meropenem / FICI value (Run #2), with meropenem: 25% CAA and […] human serum
[3] = test system: 15 P. aeruginosa isolates; experiment: MIC of GN370 in dog, human, rabbit and rat serum and CAAT; meropenem in CAMHB (Table 33); details: for MIC90: 15 isolates; for MIC GN370: diluted CAAT media
[4] = test system: outer membrane of P. aeruginosa (CFS 1292); experiment: N-phenyl-1-napthylamine (NPN) uptake assay, outer membrane destabilization (Table 15); details: NPN fluorescence, buffer = 100, lysin 100 μg/well
Description: The ability of gram-negative lysins to destabilize the outer membrane of P. aeruginosa was evaluated through the use of an N-phenyl-1-napthylamine (NPN) uptake assay. […] NPN was added to a final concentration of […]. […] Changes in fluorescence were recorded (excitation 1=350 nm; emission 1=420 nm) over two hours.

[5] = isolates from GN370 (3 mg/kg) + Meropenem (20 mg/kg) group
[6] = isolates from GN370 (30 mg/kg) + Meropenem (20 mg/kg) group
[7] = isolates from GN370 (30 mg/kg) group
[8] = isolates from Vehicle control group

B1: GN370: lysin-AMP construct: MIDR, FIRL and NPTH moieties N-terminal to GN202 lysin (SEQ ID NO: 44) (protein)
chain: MIDRFIRLNPTHGPRRPRRPGRRAPVRTSQRGIDLIKSFEGLRLSAYQDSVGVWTIGYGTTRGVTRYMTITVEQAERMLSNDIQRFEPELDRLAKVPLNQNQWDALMSFVYNLGAANLASSTLLDLLNKGDYQGAADQFPHWVNAGGKRLDGLVKRRAAERALFLEPLS
Q: Which results are given for B1?
A: resensitization to carbapenems in synergistic combinations ([1]; imipenem (IPM) and meropenem (MEM), carbapenem-resistant isolates): reductions of IPM and MEM MICS to below breakpoint values; FICI ([1]; lysin + imipenem): 0.094; FICI ([1]; lysin + meropenem): 0.125; Antibiotic MIC / Lysin MIC, Alone ([1]; vs. WC-452 (Table 22)): 2; activity against P. aeruginosa isolates in human serum or SURVANTA (P. aeruginosa isolates; Tables 11 and 12): active against a variety of P. aeruginosa isolates; MIC, CAA + […] Human Serum (P. aeruginosa isolates; strain CFS 1109 (ATCC 17646)): 1 µg/mL; MIC, CAA + […] Human Serum (P. aeruginosa isolates; strain CFS 1292): 2 µg/mL; MIC, CAA + […] Human Serum (P. aeruginosa isolates; strain CFS1539 (PA1)): 1 µg/mL; MIC, CAA + […] Human Serum (P. aeruginosa isolates; strain CFS 1540 (PA2)): 1 µg/mL; MIC, CAA + […] Human Serum (P. aeruginosa isolates; strain CFS 1541 (PA3)): 1 µg/mL; MIC, CAA + […] Human Serum (P. aeruginosa isolates; strain CFS 1557 (PA19)): 4 µg/mL; MIC, CAA + […] Human Serum (P. aeruginosa isolates; strain CFS 1558 (PA20)): 0.5 µg/mL; MIC, CAA + […] Human Serum (P. aeruginosa isolates; strain CFS 1559 (PA21)): 2 µg/mL; MIC, CAA + […] Human Serum (P. aeruginosa isolates; strain CFS 1560 (PA22)): 2 µg/mL; MIC, CAA + […] Human Serum (P. aeruginosa isolates; strain CFS 1561 (PA23)): 2 µg/mL; MIC, CAA + […] Human Serum (P. aeruginosa isolates; strain CFS 1562 (PA24)): 2 µg/mL; MIC, CAA + […] Human Serum (P. aeruginosa isolates; strain CFS 1596 (PA26)): 1 µg/mL; MIC, CAA + […] Human Serum (P. aeruginosa isolates; strain CFS 1597 (PA27)): 0.5 µg/mL; MIC, CAA + […] Human Serum (P. aeruginosa isolates; strain CFS 1669 (PA41)): 2 µg/mL; MIC, CAA + […] Human Serum (P. aeruginosa isolates; strain CFS 1674 (PA46)): 2 µg/mL; MIC, CAA + […] Human Serum (P. aeruginosa isolates; strain CFS 1675 (PA47)): 1 µg/mL; MIC, CAA + […] Human Serum (P. aeruginosa isolates; strain CFS 1766 (ATCC 27853)): 4 µg/mL; MIC of P. aeruginosa PA20 (P. aeruginosa PA20): 2 µg/mL; MIC against P. aeruginosa (P. aeruginosa PA20; GN370 value in rabbit serum): 2 µg/mL; ex vivo resistance / increase in MIC of isolates recovered from rabbit lung ([2]; all treatment groups of the rabbit pulmonary model): not observed; also recorded: no increase in MIC; number of isolates with GN370 MIC 1 μg/mL [2, 5]: 34; number of isolates with GN370 MIC 2 μg/mL [2, 5]: 14; number of isolates with GN370 MIC 2 μg/mL ([2]; isolates from GN370 (3 mg/kg) group): 16; number of isolates with GN370 MIC 1 μg/mL ([2]; isolates from GN370 (10 mg/kg) + Meropenem (20 mg/kg) group): 48; number of isolates with GN370 MIC 2 μg/mL ([2]; isolates from GN370 (10 mg/kg) group): 16; number of isolates with GN370 MIC 1 μg/mL [2, 6]: 35; number of isolates with GN370 MIC 2 μg/mL [2, 6]: 13; number of isolates with GN370 MIC 1 μg/mL [2, 7]: 16; number of isolates with GN370 MIC 2 μg/mL [2, 7]: 32; number of isolates with GN370 MIC 2 μg/mL ([2]; isolates from Meropenem (20 mg/kg) group): 16; number of isolates with GN370 MIC 2 μg/mL ([2]; isolates from Pre-treatment control group): 48; number of isolates with GN370 MIC 1 μg/mL [2, 8]: 13; number of isolates with GN370 MIC 2 μg/mL [2, 8]: 35; synergy with meropenem (P. aeruginosa strains; FICI less than or equal to 0.5 = potent synergy): exhibited synergy with meropenem; FICI value (Run #1), with meropenem (P. aeruginosa strains; strain CFS 1292): 0.1875; FICI value (Run #2), with meropenem (P. aeruginosa strains; strain CFS 1292): 0.219; FICI value (Run #1), with meropenem (P. aeruginosa strains; strain CFS 1557 (PA19)): 0.1875; FICI value (Run #2), with meropenem (P. aeruginosa strains; strain CFS 1557 (PA19)): 0.240; FICI value (Run #1), with meropenem (P. aeruginosa strains; strain CFS 1558 (PA20)): 0.09375; FICI value (Run #2), with meropenem (P. aeruginosa strains; strain CFS 1558 (PA20)): 0.109; FICI value (Run #2), with meropenem (P. aeruginosa strains; strain CFS 1559 (PA21)): 0.438; FICI value (Run #2), with meropenem (P. aeruginosa strains; strain CFS 1560 (PA22)): 0.198; FICI value (Run #2), with meropenem (P. aeruginosa strains; strain CFS 1561 (PA23)): 0.240; FICI value (Run #2), with meropenem (P. aeruginosa strains; strain CFS 1562 (PA24)): 0.240; FICI value (Run #2), with meropenem (P. aeruginosa strains; strain CFS 1766 (ATCC 27853)): 0.156; MIC90 ([3]; dog serum): 4 µg/mL; MIC90 ([3]; human serum): 2 µg/mL; MIC90 ([3]; rabbit serum): 2 µg/mL; MIC90 ([3]; rat serum): 32 µg/mL; MIC GN370 ([3]; strain AR0231): 2 µg/mL; Serum MIC Dog ([3]; strain AR0231, dog serum): 2 µg/mL; Serum MIC Human ([3]; strain AR0231, human serum): 1 µg/mL; Serum MIC Rabbit ([3]; strain AR0231, rabbit serum): 1 µg/mL; Serum MIC Rat ([3]; strain AR0231, rat serum): 16 µg/mL; MIC GN370 ([3]; strain AR0241): 2 µg/mL; Serum MIC Dog ([3]; strain AR0241, dog serum): 1 µg/mL; Serum MIC Human ([3]; strain AR0241, human serum): 1 µg/mL; Serum MIC Rabbit ([3]; strain AR0241, rabbit serum): 1 µg/mL; Serum MIC Rat ([3]; strain AR0241, rat serum): 32 µg/mL; MIC GN370 ([3]; strain AR0246): 1 µg/mL; Serum MIC Dog ([3]; strain AR0246, dog serum): 4 µg/mL; Serum MIC Human ([3]; strain AR0246, human serum): 2 µg/mL; Serum MIC Rabbit ([3]; strain AR0246, rabbit serum): 2 µg/mL; Serum MIC Rat ([3]; strain AR0246, rat serum): 32 µg/mL; MIC GN370 ([3]; strain ATCC 25668): 0.5 µg/mL; Serum MIC Dog ([3]; strain ATCC 25668, dog serum): 2 µg/mL; Serum MIC Human ([3]; strain ATCC 25668, human serum): 1 µg/mL; Serum MIC Rabbit ([3]; strain ATCC 25668, rabbit serum): 2 µg/mL; Serum MIC Rat ([3]; strain ATCC 25668, rat serum): 16 µg/mL; MIC GN370 ([3]; strain ATCC 27853): 1 µg/mL; Serum MIC Dog ([3]; strain ATCC 27853, dog serum): 2 µg/mL; Serum MIC Human ([3]; strain ATCC 27853, human serum): 1 µg/mL; Serum MIC Rabbit ([3]; strain ATCC 27853, rabbit serum): 2 µg/mL; Serum MIC Rat ([3]; strain ATCC 27853, rat serum): 32 µg/mL; MIC GN370 ([3]; strain PA1): 0.5 µg/mL; Serum MIC Dog ([3]; strain PA1, dog serum): 1 µg/mL; Serum MIC Human ([3]; strain PA1, human serum): 2 µg/mL; Serum MIC Rabbit ([3]; strain PA1, rabbit serum): 2 µg/mL; Serum MIC Rat ([3]; strain PA1, rat serum): 16 µg/mL; MIC GN370 ([3]; strain PA2): 0.5 µg/mL; Serum MIC Dog ([3]; strain PA2, dog serum): 1 µg/mL; Serum MIC Human ([3]; strain PA2, human serum): 1 µg/mL; Serum MIC Rabbit ([3]; strain PA2, rabbit serum): 2 µg/mL; Serum MIC Rat ([3]; strain PA2, rat serum): 16 µg/mL; MIC GN370 ([3]; strain PA3): 1 µg/mL; Serum MIC Dog ([3]; strain PA3, dog serum): 2 µg/mL; Serum MIC Human ([3]; strain PA3, human serum): 2 µg/mL; Serum MIC Rabbit ([3]; strain PA3, rabbit serum): 2 µg/mL; Serum MIC Rat ([3]; strain PA3, rat serum): 16 µg/mL; MIC GN370 ([3]; strain PA19): 1 µg/mL; Serum MIC Dog ([3]; strain PA19, dog serum): 1 µg/mL; Serum MIC Human ([3]; strain PA19, human serum): 0.5 µg/mL; Serum MIC Rabbit ([3]; strain PA19, rabbit serum): 0.5 µg/mL; Serum MIC Rat ([3]; strain PA19, rat serum): 32 µg/mL; MIC GN370 ([3]; strain PA20): 1 to 2 µg/mL; Serum MIC Dog ([3]; strain PA20, dog serum): 2 µg/mL; Serum MIC Human ([3]; strain PA20, human serum): 1 µg/mL; Serum MIC Rabbit ([3]; strain PA20, rabbit serum): 2 µg/mL; Serum MIC Rat ([3]; strain PA20, rat serum): 32 µg/mL; MIC GN370 ([3]; strain PA22): 2 µg/mL; Serum MIC Dog ([3]; strain PA22, dog serum): 2 µg/mL; Serum MIC Human ([3]; strain PA22, human serum): 2 µg/mL; Serum MIC Rabbit ([3]; strain PA22, rabbit serum): 2 µg/mL; Serum MIC Rat ([3]; strain PA22, rat serum): 32 µg/mL; MIC GN370 ([3]; strain PA23): 2 µg/mL; Serum MIC Dog ([3]; strain PA23, dog serum): 2 µg/mL; Serum MIC Human ([3]; strain PA23, human serum): 1 µg/mL; Serum MIC Rabbit ([3]; strain PA23, rabbit serum): 2 µg/mL; Serum MIC Rat ([3]; strain PA23, rat serum): 32 µg/mL; MIC GN370 ([3]; strain PA24): 1 µg/mL; Serum MIC Dog ([3]; strain PA24, dog serum): 4 µg/mL; Serum MIC Human ([3]; strain PA24, human serum): 2 µg/mL; Serum MIC Rabbit ([3]; strain PA24, rabbit serum): 2 µg/mL; Serum MIC Rat ([3]; strain PA24, rat serum): 16 µg/mL; MIC GN370 ([3]; strain PA27): 0.5 µg/mL; Serum MIC Dog ([3]; strain PA27, dog serum): 2 µg/mL; Serum MIC Human ([3]; strain PA27, human serum): 2 µg/mL; Serum MIC Rabbit ([3]; strain PA27, rabbit serum): 2 µg/mL; Serum MIC Rat ([3]; strain PA27, rat serum): 16 µg/mL; MIC GN370 ([3]; strain PA453): 0.5 µg/mL; Serum MIC Dog ([3]; strain PA453, dog serum): 0.5 µg/mL; Serum MIC Human ([3]; strain PA453, human serum): 0.5 µg/mL; Serum MIC Rabbit ([3]; strain PA453, rabbit serum): 0.5 µg/mL; Serum MIC Rat ([3]; strain PA453, rat serum): 32 µg/mL; % RFU ([4]; 5 minutes): 205 % RFU; % RFU ([4]; 10 minutes): 217 % RFU; % RFU ([4]; 20 minutes): 213 % RFU; % RFU ([4]; 40 minutes): 198 % RFU; % RFU ([4]; 60 minutes): 193 % RFU; % RFU ([4]; 100 minutes): 184 % RFU
